Results from US20200109188A1 (AstraZeneca / MedImmune, published 2020).

Tests used:
Assay in all cases: cell-based or functional assay
[1] = molecular target: HA of ca A/Vietnam/1203/04 (H5N1) virus (influenza A virus)
[2] = molecular target: HA of ca A/swine/Missouri/06 (H2N3) virus (influenza A virus)
[3] = molecular target: HA of ca A/Texas/36/91 (H1N1) virus (influenza A virus)
[4] = molecular target: HA of ca A/Sydney/5/97 (H3N2) virus (influenza A virus)
[5] = molecular target: HA of ca A/Perth/16/09 (H3N2) virus (influenza A virus)
[6] = molecular target: HA of ca A/chicken/Hong Kong/G9/97 (H9N2) virus (influenza A virus)
[7] = molecular target: HA of A/New Jersey/8/76 (H1N1) virus (influenza A virus)
[8] = molecular target: HA of A/Victoria/3/75 (H3N2) virus (influenza A virus, UniProt P03435 17-567)
[9] = molecular target: HA of A/Victoria/361/11 (H3N2) virus (influenza A virus)
[10] = molecular target: HA of ca A/mallard/Alberta/89/85 (H6N2) virus (influenza A virus)
[11] = molecular target: HA of ca A/teal/Hong Kong/W312/97 (H6N1) virus (influenza A virus)
[12] = molecular target: HA of ca A/Anhui/1/13 (H7N9) virus (influenza A virus)
[13] = molecular target: HA of ca A/Hong Kong/213/03 (H5N1) virus (influenza A virus)

Chain of HA of A/Victoria/3/75 (H3N2) virus (P03435 17-567 limits assumed): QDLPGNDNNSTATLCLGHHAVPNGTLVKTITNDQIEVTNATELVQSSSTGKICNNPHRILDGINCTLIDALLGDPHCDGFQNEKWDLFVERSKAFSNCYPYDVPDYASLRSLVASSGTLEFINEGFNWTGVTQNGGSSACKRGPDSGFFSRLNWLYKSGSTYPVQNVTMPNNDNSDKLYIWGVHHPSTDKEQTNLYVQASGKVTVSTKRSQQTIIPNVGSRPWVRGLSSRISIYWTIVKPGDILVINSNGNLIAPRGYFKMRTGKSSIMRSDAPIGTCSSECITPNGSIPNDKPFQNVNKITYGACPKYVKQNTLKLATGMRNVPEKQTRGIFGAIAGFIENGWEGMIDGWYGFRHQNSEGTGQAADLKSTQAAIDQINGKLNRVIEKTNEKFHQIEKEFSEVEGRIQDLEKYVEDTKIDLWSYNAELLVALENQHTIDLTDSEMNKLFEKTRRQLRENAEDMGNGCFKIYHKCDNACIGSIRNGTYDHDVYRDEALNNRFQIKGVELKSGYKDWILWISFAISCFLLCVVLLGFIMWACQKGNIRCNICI

B1: Antibody 3 (antibody, V domains shown)
VH: QVQLQESGPGLVKPSQTLSLTCAISGDSVSSNNAVWNWIRQSPSRGLEWLGRTYYRSKWYNDYAESVKSRITVNPDTSKNQFSLHLKSVTPEDTAVFYCVRSGHITVFGVNVDAFDMWGQGTMVTVSS
VL: DIQMTQSPSSLSASVGDRVTITCRTSQSLSSYLHWYQQKPGKAPKLLIYAASSLQSGVPSRFSGSGSGTDFTLTISSLQPEDFATYYCQQSRTFGQGTKVEIK
Question: With B1 as the binder, how does the “Neutralization IC50, H5-VM04” value [1] read?
Answer: 1.19 µg/mL

Question: And the “Neutralization IC50, H2-MO06” value [2]?
Answer: 1.09 µg/mL

Question: And the “Neutralization IC50, H1-TX91” value [3]?
Answer: 0.92 µg/mL

Question: What about the “Neutralization IC50, H3-Syd97” value [4] of the same binder?
Answer: 6.5 µg/mL

Question: And the “Neutralization IC50, H3-Perth09” value [5]?
Answer: 1.3 µg/mL

Question: And the “Neutralization IC50, H9-HK97” value [6]?
Answer: 1.18 µg/mL

Question: And the “Neutralization IC50, H1-NJ76” value [7]?
Answer: 0.57 µg/mL

Question: What about the “Neutralization IC50, H3-Vic75” value [8] of the same binder?
Answer: 1.12 µg/mL

Question: What about the “Neutralization IC50, H3-VC11” value [9] of the same binder?
Answer: 3.4 µg/mL

Question: And the “Neutralization IC50, H6-AB85” value [10]?
Answer: 0.69 µg/mL

Question: And the “Neutralization IC50, H6-HK97” value [11]?
Answer: 0.63 µg/mL

Question: What about the “Neutralization IC50, H7-ANU13” value [12] of the same binder?
Answer: 4.26 µg/mL

Question: What about the “Neutralization IC50, H5-HK03” value [13] of the same binder?
Answer: 0.71 µg/mL
